Source: PMC10288639

Key:
[1] = target: G120C/H31C HLA-A*02:01/β2m complex (open HLA-A*02:01); test: fluorescence polarisation
WT HLA-A*02:01/β2m = test: fluorescence polarisation

Substance	IC50 [1]	IC50 (WT HLA-A*02:01/β2m)	fold of the apparent association rate constant k^app on over WT [1]
TAX9 (peptide)	250 nM	250 nM	
fluorophore-labeled TAX9 (TAMRA-TAX9) (peptide)			> 10 fold
